Measurements published in patent publication US20110014213A1 (JURIDICAL FDN THE CHEMO SERO THERAP RES INS, published 2011).

How the values were obtained:
[1] = biological target: T1, mouse α9 integrin (mouse, UniProt B8JK39 29-1036); experiment: cell-based or functional assay
T1 chain: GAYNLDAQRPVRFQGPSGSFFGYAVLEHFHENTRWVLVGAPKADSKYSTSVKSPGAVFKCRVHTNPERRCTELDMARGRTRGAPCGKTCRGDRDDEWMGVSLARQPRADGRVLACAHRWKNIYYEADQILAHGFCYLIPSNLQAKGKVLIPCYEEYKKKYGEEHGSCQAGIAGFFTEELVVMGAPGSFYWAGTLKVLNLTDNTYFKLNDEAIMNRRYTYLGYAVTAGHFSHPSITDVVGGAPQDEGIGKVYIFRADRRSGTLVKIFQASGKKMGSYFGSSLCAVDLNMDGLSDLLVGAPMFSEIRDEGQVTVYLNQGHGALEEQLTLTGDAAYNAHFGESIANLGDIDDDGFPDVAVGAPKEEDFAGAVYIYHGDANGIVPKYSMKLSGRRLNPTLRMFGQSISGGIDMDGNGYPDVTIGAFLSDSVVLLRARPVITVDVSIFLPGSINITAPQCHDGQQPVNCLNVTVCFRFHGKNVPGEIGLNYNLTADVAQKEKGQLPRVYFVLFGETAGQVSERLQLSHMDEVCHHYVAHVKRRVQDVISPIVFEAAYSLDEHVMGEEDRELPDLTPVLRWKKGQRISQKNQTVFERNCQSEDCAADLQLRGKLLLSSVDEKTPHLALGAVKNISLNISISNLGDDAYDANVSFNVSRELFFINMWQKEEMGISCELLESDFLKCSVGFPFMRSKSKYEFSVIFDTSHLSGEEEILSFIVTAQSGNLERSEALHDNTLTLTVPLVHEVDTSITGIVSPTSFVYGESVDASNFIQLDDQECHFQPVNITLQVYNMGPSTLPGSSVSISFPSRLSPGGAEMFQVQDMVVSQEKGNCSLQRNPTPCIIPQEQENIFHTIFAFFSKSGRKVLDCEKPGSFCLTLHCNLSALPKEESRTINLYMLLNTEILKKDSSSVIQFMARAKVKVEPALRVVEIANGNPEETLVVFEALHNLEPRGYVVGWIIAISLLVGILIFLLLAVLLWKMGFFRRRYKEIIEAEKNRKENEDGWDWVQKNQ

[2] = biological target: T2, human α9 integrin (human, UniProt Q13797 30-1035); experiment: cell-based or functional assay
T2 sequence: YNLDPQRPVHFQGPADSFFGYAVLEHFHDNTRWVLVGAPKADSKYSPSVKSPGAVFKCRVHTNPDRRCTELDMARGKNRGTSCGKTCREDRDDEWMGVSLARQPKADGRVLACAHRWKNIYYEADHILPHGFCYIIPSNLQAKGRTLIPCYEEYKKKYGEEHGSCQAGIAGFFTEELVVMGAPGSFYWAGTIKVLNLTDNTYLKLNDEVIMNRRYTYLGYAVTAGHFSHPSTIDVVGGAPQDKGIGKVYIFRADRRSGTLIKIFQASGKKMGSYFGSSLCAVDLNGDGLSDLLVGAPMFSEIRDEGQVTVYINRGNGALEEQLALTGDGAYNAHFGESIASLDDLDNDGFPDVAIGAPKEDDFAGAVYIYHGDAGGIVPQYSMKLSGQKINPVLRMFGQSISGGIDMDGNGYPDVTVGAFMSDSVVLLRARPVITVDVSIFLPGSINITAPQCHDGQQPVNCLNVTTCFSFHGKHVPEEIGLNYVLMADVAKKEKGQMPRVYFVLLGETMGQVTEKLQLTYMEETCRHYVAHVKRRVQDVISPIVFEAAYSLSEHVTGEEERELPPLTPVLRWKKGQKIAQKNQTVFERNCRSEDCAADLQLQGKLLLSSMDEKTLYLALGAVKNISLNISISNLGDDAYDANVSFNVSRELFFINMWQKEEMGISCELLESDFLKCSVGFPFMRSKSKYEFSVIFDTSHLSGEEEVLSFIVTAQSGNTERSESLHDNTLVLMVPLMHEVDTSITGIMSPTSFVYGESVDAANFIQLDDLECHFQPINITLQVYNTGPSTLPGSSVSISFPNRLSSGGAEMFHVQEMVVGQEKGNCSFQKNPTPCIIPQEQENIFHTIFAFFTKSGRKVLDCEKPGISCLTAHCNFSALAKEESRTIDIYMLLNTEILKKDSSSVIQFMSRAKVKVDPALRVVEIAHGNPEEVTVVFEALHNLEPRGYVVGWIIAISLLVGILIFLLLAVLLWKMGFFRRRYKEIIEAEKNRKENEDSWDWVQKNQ

[3] = biological target: T2, human α9 integrin; experiment: cell-based or functional assay; remark: listed apart in the source
[4] = biological target: T2, human α9 integrin; experiment: Cell ELISA of IgG in culture supernatant, anti-human IgG(Fc) detection
Description: CHO/mα9 and CHO were seeded on a 96 well plate (costar) at 2×10⁴ cells/100 μL/well, and incubated overnight at 37° C., 5% CO₂. The medium was suctioned, and the cells were washed with PBS, and reacted with phage antibody diluted with 1% BSA/PBS. The detection was performed by using horse-radish peroxidase (HRP)-labeled anti-M13 antibody (Amersham) and TMB (SIGMA) in combination. The absorbance at wavelengths 450 nm and 650 nm was measured by a microplate reader (Molecular Devices).
SW480/mα9, SW480/hα9 and SW480 were used as antigens, 1% BSA/PBS containing 5% FBS was used as a dilution solution, an HRP-labeled anti-mouse IgG antibody (ZYMED) was used for detection, and the rest was performed under the same conditions as in Example 4.
The IgG expression amount in the culture supernatant was quantified by human IgG quantification ELISA, and the reactivity with human α9 and mouse α9 at each IgG concentration was analyzed by Cell ELISA. HRP-labeled anti-human IgG(Fc) antibody (American Qualex) was used for detection, and the rest was performed under the same conditions as in Example 11.

Binder | IC50 of inhibition of α9-dependent cell adhesion [1] [µg/mL] | IC50 of inhibition of α9-dependent cell adhesion [2] [µg/mL] | fold inhibitory activity against human α9-dependent cell adhesion, against MA9-413 [3] [fold] | binding result [4]
HA9-107 scFv-Fc (Fc fusion, not shown: a dimerising Fc or GST) scFv: EVQLVESGGGVVRPGGSLRLSCAASGFAFGDYGMSWVRQAPGKGLEWVSGINWNGGSTGYADSVKGRFTTSRDNAKNSLYLQMNSLRAEDTALYYCARDENYDILTNEYYYGMDVWGQGTTVTVSSGGGGSGGGGSGGGGSQSVVTQPPSVSAAPGQKVTISCSGSSSNIGNNYVSWYQQLPGTAPKLLIYDNNKRPSGIPDRFSASKSGTSATLGITGLQTGDEADYYCGTWDSSLTVWAFGGGTKLTVLG | 0.067 | > 10 |  | 
HA9-143 scFv-Fc (Fc fusion, not shown: a dimerising Fc or GST) scFv: EVQLVESGGGVVRPGGSLRLSCAASGFAFGEYGMSWVRQAPGKGLEWVSGINWNGGSTGYADSVKGRFTTSRDNAKNSLYLQMNSLRAEDTALYYCARDENYDILTGHYYYGMDVWGQGTTVTVSSGGGGSGGGGSGGGGSQSVVTQPPSVSAAPGQKVTISCSGSSSNIGNNYVSWYQQLPGTAPKLLIYDNNKRPSGIPDRFSASKSGTSATLGITGLQTGDEADYYCGTWDSSLTVWAFGGGTKLTVLG | 2.32 | 0.42 |  | 
HA9-212 scFv-Fc (Fc fusion, not shown: a dimerising Fc or GST) scFv: EVQLVESGGGVVRPGGSLRLSCAASGFAFGEYGMSWVRQAPGKGLEWVSGINWNGGSTGYADSVQGRFTTSRDNAKNSLYLQMNSLRAEDTALYYCARDENYDILTGNYYYGMDVWGQGTTVTVSSGGGGSGGGGSGGGGSQSVVTQPPSVSAAPGQKVTISCSGSSSNIGNNYVSWYQQLPGTAPKLLIYDNNKRPSGIPDRFSASKSGTSATLGITGLQTGDEADYYCGTWDSSLTVWAFGGGTKLTVLG | 3.3 | 0.053 | ~1000 | 
MA9-418 scFv-Fc (Fc fusion, not shown: a dimerising Fc or GST) scFv: EVQLVESGGGVVRPGGSLRLSCAASGFAFGDYGMSWVRQAPGKGLEWVSGINWNGGSTGYADSVKGRFTTSRDNAKNSLYLQMNSLRAEDTALYYCARDENYDILTGAYYYGMDVWGQGTTVTVSSGGGGSGGGGSGGGGSQSVVTQPPSVSAAPGQKVTISCSGSSSNIGNNYVSWYQQLPGTAPKLLIYDNNKRPSGIPDRFSASKSGTSATLGITGLQTGDEADYYCGTWDSSLTVWAFGGGTKLTVLG | 0.96 | > 10 |  | 
HA9-212 IgG (antibody, V domains shown, VH joined to human IgG1 constant region; VL joined to 'human x chain constant region'; Tested as culture supernatant of COS-7 / FreeStyle 293-F cells) VH: EVQLVESGGGVVRPGGSLRLSCAASGFAFGEYGMSWVRQAPGKGLEWVSGINWNGGSTGYADSVQGRFTTSRDNAKNSLYLQMNSLRAEDTALYYCARDENYDILTGNYYYGMDVWGQGTTVTVSS VL: QSVVTQPPSVSAAPGQKVTISCSGSSSNIGNNYVSWYQQLPGTAPKLLIYDNNKRPSGIPDRFSASKSGTSATLGITGLQTGDEADYYCGTWDSSLTVWAFGGGTKLTVLG |  |  |  | binds
